Results reported in PMC5263234, “Dynamin-2 Stabilizes the HIV-1 Fusion Pore with a Low Oligomeric State” (Cell Reports, 2017).
“And” between values parts separate entries of the source, which are not always exact repeats. Equal values may be shown once.

Legend:
[1] = target: the molecule itself; assay: number and brightness analysis with TIRF microscopy; live TZM-bl cells expressing Dynamin-mCherry, exposed to HIV(JRFL) at MOI 10; 100 frames at 50 ms per frame; brightness calibrated against mCherry alone
[2] = target: the molecule itself; assay: number and brightness analysis with TIRF microscopy

B1: dynamin-2 (natural protein, UniProt P50570 1-870, looked up)
chain: MGNRGMEELIPLVNKLQDAFSSIGQSCHLDLPQIAVVGGQSAGKSSVLENFVGRDFLPRGSGIVTRRPLILQLIFSKTEHAEFLHCKSKKFTDFDEVRQEIEAETDRVTGTNKGISPVPINLRVYSPHVLNLTLIDLPGITKVPVGDQPPDIEYQIKDMILQFISRESSLILAVTPANMDLANSDALKLAKEVDPQGLRTIGVITKLDLMDEGTDARDVLENKLLPLRRGYIGVVNRSQKDIEGKKDIRAALAAERKFFLSHPAYRHMADRMGTPHLQKTLNQQLTNHIRESLPALRSKLQSQLLSLEKEVEEYKNFRPDDPTRKTKALLQMVQQFGVDFEKRIEGSGDQVDTLELSGGARINRIFHERFPFELVKMEFDEKDLRREISYAIKNIHGVRTGLFTPDLAFEAIVKKQVVKLKEPCLKCVDLVIQELINTVRQCTSKLSSYPRLREETERIVTTYIREREGRTKDQILLLIDIEQSYINTNHEDFIGFANAQQRSTQLNKKRAIPNQGEILVIRRGWLTINNISLMKGGSKEYWFVLTAESLSWYKDEEEKEKKYMLPLDNLKIRDVEKGFMSNKHVFAIFNTEQRNVYKDLRQIELACDSQEDVDSWKASFLRAGVYPEKDQAENEDGAQENTFSMDPQLERQVETIRNLVDSYVAIINKSIRDLMPKTIMHLMINNTKAFIHHELLAYLYSSADQSSLMEESADQAQRRDDMLRMYHALKEALNIIGDISTSTVSTPVPPPVDDTWLQSASSHSPTPQRRPVSSIHPPGRPPAVRGPTPGPPLIPVPVGAAASFSAPPIPSRPGPQSVFANSDLFPAPPQIPSRPVRIPPGIPPGVPSRRPPAAPSRPTIIRPAEPSLLD
notes: dynamin-2 (DNM2), large GTPase; Each copy carries ONE fluorescent protein; FRET-FLIM used an EGFP-tagged copy together with an mCherry-tagged copy; number and brightness used the mCherry-tagged copy alone; The Addgene dynamin-2 plasmids may encode the rat protein (surmise); also called DNM2; Dyn-GFP; source: TZM-bl cells, transfected (plasmids obtained from Addgene), in live cells
[1]
  stoichiometry N: 4
[2]
  stoichiometry N: 8 and 6
